{
  "source": "patent US10617652B2",
  "about": "“Polymers and polymeric nanogels with hydrophilics encapsulation and release capabilities and methods thereof” (University of Massachusetts, priority 2014, dated 2020)",
  "biological_target": "T1, acid α-glucosidase (GAA) (Homo sapiens, UniProt P10253)",
  "T1 construct": "purchased Genzyme, Inc. (Myozyme)",
  "assay": "GAA activity assay with para-nitrophenol-α-D-glucopyranoside substrate",
  "format": "biochemical",
  "description": "The activity of the encapsulated GAA, relative to the free GAA, was evaluated. It was envisioned that the enzyme would be less available to the substrate, when encapsulated, and therefore would have a lower activity. It follows then that the activity will be recovered when exposing the nanogel to lower pH, as the enzyme will be released in response to the β-thioester cleavage based decrosslinking. The enzymatic activity was measured using para-nitrophenol-α-D-glucopyranoside as substrate, the GAA-assisted cleavage of the α-1,4-linkage of which releases the chromophore p-nitrophenolate (pNP). […] Note, however, that the enzymatic activity of GAA itself at pH 7.4 is undetectable (FIG. 4a).\nTo activate the GAA from the nanogel, the pH of the solution was reduced to 5.0 using acetate buffer. […] To calibrate the percentage of activity that was recovered after 48 hours of incubation at pH 5.0, the enzymatic activity of the GAA from the nanogel was compared with that of the free enzyme at the same concentration. […]\nGAA activity was measured using para-nitrophenol-α-D-glucopyranoside as a substrate in 100 mM Citrate/100 mM Sodium Phosphate buffer at pH 5.0. […] Presence of the product formation (para-nitrophenolate) was then measured by absorbance of 400 nm light on a Molecular Devices Spectra Max M5 at 25° C. […]",
  "data": [
    {"substance": "acid α-glucosidase [GAA]", "values": [
      {"measurement": "enzymatic activity at pH 7.4", "result": "undetectable"}
    ]}
  ]
}
